Target: Telomeric repeat binding factor 2 (TRF2), endogenous (human (endogenous in C1, UTC8505, RD and HEK293T cells))
Test: proximity ligation; Duolink PLA in fixed, permeabilised C1 cells with antibodies to HMGA2 (D1A7), TRF2 and RAP1; a minimum of 30 nuclei quantified

PLA foci per nucleus (PLA foci per nucleus): 5
B1: High Mobility Group AT-hook protein 2 (HMGA2), endogenous (natural protein)
chain: MSARGEGAGQPSTSAQGQPAAPAPQKRGRGRPRKQQQEPTGEPSPKRPRGRPKGSKNKSPSKAAQKKAEATGEKRPRGRPRKWPQQVVQKKPAQEETEETSSQESAEED

Source: paper PMC4914320
